Measurements: publication PMC7820984
Positions count from the first letter of the chain named.

T1: MBP-WRKY21 (Oryza sativa, UniProt Q5FZT4 1-280)
T1 sequence: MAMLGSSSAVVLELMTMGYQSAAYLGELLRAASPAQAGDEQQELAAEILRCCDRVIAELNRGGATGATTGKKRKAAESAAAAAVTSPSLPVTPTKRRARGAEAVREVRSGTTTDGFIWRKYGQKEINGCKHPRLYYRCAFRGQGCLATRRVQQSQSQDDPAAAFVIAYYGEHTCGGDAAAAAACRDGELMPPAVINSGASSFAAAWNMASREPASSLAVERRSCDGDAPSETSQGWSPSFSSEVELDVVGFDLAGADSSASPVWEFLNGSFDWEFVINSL

B1: F2 (Wz and Wy W-boxes) (dsDNA)
DNA 1: TTTTAATAGATGACGCCGTTGACTTTTTCTTACATATTTGACCATTCGTCTTATCCAAAA
DNA 2: TTTTGGATAAGACGAATGGTCAAATATGTAAGAAAAAGTCAACGGCGTCATCTATTAAAA
B2: F2-m (Wz and Wy mutated) (dsDNA)
DNA 1: B1 DNA 1 with C23A, C42A
DNA 2: B1 DNA 2 with G19T, G38T

Biological target: T1, MBP-WRKY21
Test: EMSA

| Binder | binding result |
| --- | --- |
| B1 | binds |
| B2 | no binding |
